Results taken from patent US20200377588A1, “Highly Versatile Method of Presenting Cyclic Peptide on Protein Structure” (The University of Tokyo, priority 2017, published 2020).

Assays:
Met-PA = molecular target: T1, Met-PA (Homo sapiens, UniProt P08581); experiment: pull-down type binding experiment, Met-PA captured on NZ-1 Sepharose, SDS-PAGE; details: Example 1, Fn10-Fc mutants, culture supernatant, FIG. 5
T1 construct: made in house; host or cells: Expi293F cells (secreted, culture supernatant)
T1 sequence (P08581 25-932 limits assumed): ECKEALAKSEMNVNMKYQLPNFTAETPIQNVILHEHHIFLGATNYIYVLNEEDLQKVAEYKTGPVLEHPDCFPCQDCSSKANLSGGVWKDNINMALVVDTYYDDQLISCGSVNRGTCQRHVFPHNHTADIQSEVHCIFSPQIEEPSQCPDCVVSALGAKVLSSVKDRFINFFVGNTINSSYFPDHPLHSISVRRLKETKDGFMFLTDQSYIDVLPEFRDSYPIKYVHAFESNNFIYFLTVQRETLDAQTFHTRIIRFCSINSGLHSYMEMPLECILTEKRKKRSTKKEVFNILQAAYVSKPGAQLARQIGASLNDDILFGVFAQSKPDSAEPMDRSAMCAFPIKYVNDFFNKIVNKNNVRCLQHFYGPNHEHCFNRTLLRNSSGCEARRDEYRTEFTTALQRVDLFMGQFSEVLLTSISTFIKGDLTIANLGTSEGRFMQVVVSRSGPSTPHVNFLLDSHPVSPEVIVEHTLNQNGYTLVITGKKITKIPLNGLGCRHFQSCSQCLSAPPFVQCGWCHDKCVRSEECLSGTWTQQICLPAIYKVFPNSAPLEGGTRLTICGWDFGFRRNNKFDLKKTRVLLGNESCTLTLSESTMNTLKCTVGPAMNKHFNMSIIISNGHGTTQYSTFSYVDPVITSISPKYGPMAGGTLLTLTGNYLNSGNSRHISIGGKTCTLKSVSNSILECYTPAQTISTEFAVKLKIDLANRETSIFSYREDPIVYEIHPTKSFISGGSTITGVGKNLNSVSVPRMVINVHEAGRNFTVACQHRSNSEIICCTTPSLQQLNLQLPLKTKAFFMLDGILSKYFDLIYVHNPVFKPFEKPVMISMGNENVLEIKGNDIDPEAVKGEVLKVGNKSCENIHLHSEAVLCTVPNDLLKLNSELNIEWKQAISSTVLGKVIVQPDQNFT

EGFR-PA = molecular target: T2, EGFR-PA (Homo sapiens, UniProt P00533); experiment: pull-down type binding experiment, EGFR-PA captured on NZ-1 Sepharose, SDS-PAGE; details: Example 1, Fn10-Fc mutants, culture supernatant, FIG. 5
T2 construct: made in house; host or cells: Expi293F cells (secreted, culture supernatant)
Description: (§1) A pull-down type binding experiment was performed to study whether or not Fn10-Fc having various cyclic peptides fused therein retained its binding ability, which the cyclic peptides had before fusion, to binding molecules. In accordance with the method described in Protein Exp. Purification, 2014, 95, 240-247, respective constructs encoding fusion proteins having a PA tag (product of Wako Pure Chemical Industries) added to the C terminus of an extracellular region of four binding molecules (each, single-pass membrane receptor) were created and the resulting constructs were each incorporated in an expression vector pcDNA3.1 (product of Thermo Fisher Scientific). After transient expression in Expi293F cells by the above-described method while using the vector, respective culture supernatants containing Plexin B1-PA, Met-PA, EGFR-PA, and TrkB-PA, which were soluble receptor fragments, were prepared.
(§2) To 0.5 mL of the culture supernatant containing the PA-tag added receptor extracellular region, 30 μL of Sepharose (product of Wako Pure Chemical Industries) on which NZ-1, an anti-PA tag antibody, was immobilized and the resulting mixture was mixed by rotation for 2 hours to capture the binding molecule on Sepharose. […]

Plexin B1-PA = molecular target: T3, Plexin B1-PA (Homo sapiens, UniProt O43157); experiment: pull-down type binding experiment, Plexin B1-PA captured on NZ-1 Sepharose, SDS-PAGE
T3 construct: made in house; host or cells: Expi293F cells (secreted, culture supernatant)
T3 sequence (O43157 20-1490 limits assumed): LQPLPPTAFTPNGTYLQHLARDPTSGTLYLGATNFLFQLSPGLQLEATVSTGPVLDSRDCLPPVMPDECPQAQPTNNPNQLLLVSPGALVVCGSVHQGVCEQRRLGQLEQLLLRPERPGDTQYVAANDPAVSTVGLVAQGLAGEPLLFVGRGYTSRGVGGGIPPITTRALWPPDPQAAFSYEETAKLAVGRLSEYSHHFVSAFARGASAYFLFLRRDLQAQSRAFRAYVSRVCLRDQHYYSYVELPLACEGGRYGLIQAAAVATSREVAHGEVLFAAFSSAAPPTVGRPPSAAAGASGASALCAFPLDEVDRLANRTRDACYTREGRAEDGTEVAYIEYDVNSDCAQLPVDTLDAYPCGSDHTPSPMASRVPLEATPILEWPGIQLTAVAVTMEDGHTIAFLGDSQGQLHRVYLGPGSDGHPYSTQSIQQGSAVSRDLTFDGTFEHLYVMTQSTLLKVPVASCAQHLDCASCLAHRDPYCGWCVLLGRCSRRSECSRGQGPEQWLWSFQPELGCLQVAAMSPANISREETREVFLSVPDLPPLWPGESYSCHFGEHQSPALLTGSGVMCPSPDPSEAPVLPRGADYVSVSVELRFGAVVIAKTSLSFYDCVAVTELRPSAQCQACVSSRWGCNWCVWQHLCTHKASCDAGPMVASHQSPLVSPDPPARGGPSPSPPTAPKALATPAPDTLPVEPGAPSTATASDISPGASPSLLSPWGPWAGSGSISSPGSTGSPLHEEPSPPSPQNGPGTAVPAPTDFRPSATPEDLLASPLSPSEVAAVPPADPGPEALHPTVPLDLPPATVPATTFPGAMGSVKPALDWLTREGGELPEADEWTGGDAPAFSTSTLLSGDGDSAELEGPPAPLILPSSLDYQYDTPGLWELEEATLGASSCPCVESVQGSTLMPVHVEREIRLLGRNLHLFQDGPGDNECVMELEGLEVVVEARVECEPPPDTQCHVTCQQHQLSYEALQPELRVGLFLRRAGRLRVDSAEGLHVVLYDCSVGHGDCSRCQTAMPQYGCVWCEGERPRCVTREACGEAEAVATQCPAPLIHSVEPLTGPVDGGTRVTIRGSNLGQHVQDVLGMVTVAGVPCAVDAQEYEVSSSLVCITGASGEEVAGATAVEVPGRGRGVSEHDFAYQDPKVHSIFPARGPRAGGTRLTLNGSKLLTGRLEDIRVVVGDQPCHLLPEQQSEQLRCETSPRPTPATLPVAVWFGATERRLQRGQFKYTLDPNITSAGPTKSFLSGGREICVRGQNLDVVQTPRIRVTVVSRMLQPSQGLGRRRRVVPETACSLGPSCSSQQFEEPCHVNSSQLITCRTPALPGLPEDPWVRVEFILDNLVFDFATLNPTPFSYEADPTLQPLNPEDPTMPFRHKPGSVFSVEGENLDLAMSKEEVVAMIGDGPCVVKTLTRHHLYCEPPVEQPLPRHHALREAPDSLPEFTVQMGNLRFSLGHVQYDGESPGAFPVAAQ
Description: as §1, §2

TrkB-PA = molecular target: T4, TrkB-PA (Homo sapiens, UniProt Q16620); experiment: pull-down type binding experiment, TrkB-PA captured on NZ-1 Sepharose, SDS-PAGE; details: Example 1, Fn10-Fc mutants, culture supernatant, FIG. 5
T4 construct: made in house; host or cells: Expi293F cells (secreted, culture supernatant)
Description: as §1, §2

Plexin B1-Fc = molecular target: T5, Plexin B1-Fc (Homo sapiens, UniProt O43157); experiment: pulldown, Plexin B1-Fc captured on protein A-Sepharose, SDS-PAGE; type: binding; details: Example 7, PLAP mutants, FIG. 27
T5 construct: Protein A Sepharose that had captured a soluble receptor fragment Plexin B1-Fc therein
T5 sequence (O43157 20-1490 limits assumed): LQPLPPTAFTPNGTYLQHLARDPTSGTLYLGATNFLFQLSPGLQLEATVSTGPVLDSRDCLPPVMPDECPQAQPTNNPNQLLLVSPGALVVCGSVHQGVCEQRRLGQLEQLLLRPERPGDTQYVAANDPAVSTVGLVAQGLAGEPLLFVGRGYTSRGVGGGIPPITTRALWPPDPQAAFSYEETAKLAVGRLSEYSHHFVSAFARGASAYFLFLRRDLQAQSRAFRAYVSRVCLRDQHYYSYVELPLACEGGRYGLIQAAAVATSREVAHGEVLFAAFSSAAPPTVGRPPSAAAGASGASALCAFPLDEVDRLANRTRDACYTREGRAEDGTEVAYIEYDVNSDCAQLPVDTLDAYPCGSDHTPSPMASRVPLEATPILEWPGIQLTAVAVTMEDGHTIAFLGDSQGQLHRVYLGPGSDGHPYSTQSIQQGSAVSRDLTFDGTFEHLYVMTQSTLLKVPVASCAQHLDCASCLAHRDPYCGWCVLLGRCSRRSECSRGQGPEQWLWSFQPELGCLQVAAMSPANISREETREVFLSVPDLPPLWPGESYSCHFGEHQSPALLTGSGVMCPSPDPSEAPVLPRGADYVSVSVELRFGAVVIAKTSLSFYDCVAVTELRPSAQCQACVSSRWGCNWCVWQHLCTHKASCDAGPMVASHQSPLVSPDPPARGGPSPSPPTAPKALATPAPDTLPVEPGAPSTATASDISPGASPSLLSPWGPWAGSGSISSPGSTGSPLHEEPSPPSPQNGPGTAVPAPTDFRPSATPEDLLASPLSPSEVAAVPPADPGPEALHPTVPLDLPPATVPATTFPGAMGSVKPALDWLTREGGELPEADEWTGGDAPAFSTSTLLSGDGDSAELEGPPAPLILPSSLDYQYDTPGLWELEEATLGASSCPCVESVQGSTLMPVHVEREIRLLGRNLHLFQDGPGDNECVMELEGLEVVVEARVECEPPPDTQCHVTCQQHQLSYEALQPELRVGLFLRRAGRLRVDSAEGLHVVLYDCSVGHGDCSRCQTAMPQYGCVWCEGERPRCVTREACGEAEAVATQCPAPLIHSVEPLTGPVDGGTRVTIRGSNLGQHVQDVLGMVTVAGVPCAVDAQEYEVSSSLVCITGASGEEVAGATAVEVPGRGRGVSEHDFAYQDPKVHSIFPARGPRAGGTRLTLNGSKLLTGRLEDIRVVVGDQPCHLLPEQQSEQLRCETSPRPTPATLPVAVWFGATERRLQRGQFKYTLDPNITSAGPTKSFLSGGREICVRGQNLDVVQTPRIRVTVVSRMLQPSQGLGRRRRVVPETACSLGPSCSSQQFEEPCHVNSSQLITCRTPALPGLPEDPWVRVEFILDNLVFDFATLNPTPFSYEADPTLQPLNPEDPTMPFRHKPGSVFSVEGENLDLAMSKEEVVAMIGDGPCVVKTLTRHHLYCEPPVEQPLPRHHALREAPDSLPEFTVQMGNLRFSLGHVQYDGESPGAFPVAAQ
Description: It is to be noted, however, that for the mP6-9 peptide fusion protein, not Plexin B1-PA but Plexin B1-Fc protein was used as a binding molecule and as pulldown beads, not NZ-1-Sepharose but protein A-Sepharose was used.

Met-Fc = molecular target: T6, Met-Fc (Homo sapiens, UniProt P08581); experiment: pulldown, Met-Fc captured on Protein A Sepharose, SDS-PAGE; type: binding; details: Example 7, PLAP mutants, FIG. 27
T6 construct: captured a soluble receptor fragment Plexin B1-Fc or Met-Fc therein
T6 sequence (P08581 25-932 limits assumed): as the sequence (P08581 25-932 limits assumed) above
Description: Binding of the resulting cyclic peptide fusion protein (PLAP mutant) to Protein A Sepharose that had captured a soluble receptor fragment Plexin B1-Fc or Met-Fc therein by the method described above I Example 1 was studied by the pulldown method.

Fn10-Fc: tenth Type III repeat domain of human fibronectin (residues 1418 to 1509) fused to human IgG1 Fc, no peptide inserted; control
binding to Met-PA (pulldown) (Met-PA): did not show a binding property | binding to EGFR-PA (pulldown) (EGFR-PA): did not show a binding property | binding to Plexin B1-PA (pulldown) (Plexin B1-PA; Example 1, Fn10-Fc mutants, culture supernatant, FIG. 5): did not show a binding property | binding to TrkB-PA (pulldown) (TrkB-PA): did not show a binding property

hGH: full-length human growth hormone with Hisx8 tag and TEV site, no cyclic peptide fused; control
binding to Plexin B1-PA (pulldown) (Plexin B1-PA; Example 5, hGH mutants, FIG. 20B): does not bind to Plexin B1-PA

B1: PLAP: full-length human placental alkaline phosphatase with Myc and Hisx6 tags, no cyclic peptide fused; control (protein, UniProt P05187 1-535, looked up)
chain: MLGPCMLLLLLLLGLRLQLSLGIIPVEEENPDFWNREAAEALGAAKKLQPAQTAAKNLIIFLGDGMGVSTVTAARILKGQKKDKLGPEIPLAMDRFPYVALSKTYNVDKHVPDSGATATAYLCGVKGNFQTIGLSAAARFNQCNTTRGNEVISVMNRAKKAGKSVGVVTTTRVQHASPAGTYAHTVNRNWYSDADVPASARQEGCQDIATQLISNMDIDVILGGGRKYMFRMGTPDPEYPDDYSQGGTRLDGKNLVQEWLAKRQGARYVWNRTELMQASLDPSVTHLMGLFEPGDMKYEIHRDSTLDPSLMEMTEAALRLLSRNPRGFFLFVEGGRIDHGHHESRAYRALTETIMFDDAIERAGQLTSEEDTLSLVTADHSHVFSFGGYPLRGSSIFGLAPGKARDRKAYTVLLYGNGPGYVLKDGARPDVTESESGSPEYRQQSAVPLDEETHAGEDVAVFARGPQAHLVHGVQEQTFIAHVMAFAACLEPYTACDLAPPAGTTDAAHPGRSVVPALLPLLAGTLLLLETATAP
modifications: full-length Myc and His6 tags
notes: full-length human placental alkaline phosphatase with Myc and Hisx6 tags, no cyclic peptide fused; control
binding to Plexin B1-Fc (pulldown) (Plexin B1-Fc): does not bind | binding to Met-Fc (pulldown) (Met-Fc): does not bind
